In patent publication US20150023958A1 (SAMSUNG ELECTRONICS, published 2015):

Tests used:
human Ang2 = target: T1, human Ang2 (human, UniProt O15123 19-496); assay: ELISA, Ang2 coated on plate, anti-human Fc-HRP detection
T1 construct: Bought protein (R&D Systems); also called A2; angiopoietin 2
T1 sequence (looked up): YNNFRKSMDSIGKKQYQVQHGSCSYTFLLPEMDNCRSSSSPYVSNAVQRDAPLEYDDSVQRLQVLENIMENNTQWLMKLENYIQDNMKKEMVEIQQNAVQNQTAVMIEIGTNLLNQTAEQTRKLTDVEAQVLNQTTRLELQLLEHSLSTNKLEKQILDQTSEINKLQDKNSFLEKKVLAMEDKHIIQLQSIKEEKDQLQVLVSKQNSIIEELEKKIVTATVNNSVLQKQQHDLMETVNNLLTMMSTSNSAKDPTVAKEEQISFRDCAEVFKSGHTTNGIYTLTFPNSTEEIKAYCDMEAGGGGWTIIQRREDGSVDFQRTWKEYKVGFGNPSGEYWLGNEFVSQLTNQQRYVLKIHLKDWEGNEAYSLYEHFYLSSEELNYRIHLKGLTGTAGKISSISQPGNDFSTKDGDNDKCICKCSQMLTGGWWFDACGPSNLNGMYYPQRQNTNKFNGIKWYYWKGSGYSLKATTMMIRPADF
Description: (§1) To measure binding capacities of fusion polypeptides to each target, ELISA (Enzyme-linked immunosorbent assay) was conducted. On a 96-well MaxiSorp™ flat-bottom plate (Nunc), 50 ul of human VEGF-C, VEGF-D, or Ang2 (R&D Systems) were coated in the concentration of […]. And then, the plate was washed 5 times with PBS containing 0.05% Tween-20, and then, blocked with PBS containing 1% BSA at room temperature for 2 hours. 50 ul of each fusion polypeptide was put in each well according to concentration, and then, the plate was incubated at room temperature for 2 hours. And then, it was washed 5 times with PBS containing 0.05% Tween-20, and then, HRP-conjugated anti-human Fc antibody (Sigma) was diluted to 1:5,000 with PBS containing 1% BSA and reacted at room temperature for 1 hour, and washed 5 times with PBS containing 0.1% Tween-20. Finally, to each well of the plate, 50 μl of TMB substrate (SIGMA) was added to cause color reaction, and then, the reaction was stopped with 50 μl of a 5N H₂SO₄ solution, and OD450 value was measured on a plate reader (Molecular Devices). Thereby, binding capacities (KD) of the manufactured fusion polypeptides to human VEGF-C, VEGF-D or Ang2 protein were measured.

human VEGF-C = target: T2, human VEGF-C (human, UniProt P49767 103-227); assay: ELISA, VEGF-C coated on plate, anti-human Fc-HRP detection
T2 construct: Bought protein (R&D Systems); also called VC; Vascular endothelial growth factor C
T2 sequence (looked up): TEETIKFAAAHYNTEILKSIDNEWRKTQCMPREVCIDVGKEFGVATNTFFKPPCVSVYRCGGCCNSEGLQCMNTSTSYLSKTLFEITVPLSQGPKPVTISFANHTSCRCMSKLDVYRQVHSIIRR
Description: as §1

human VEGF-D = target: T3, human VEGF-D (human, UniProt O43915 93-201, limits assumed); assay: ELISA, VEGF-D coated on plate, anti-human Fc-HRP detection
T3 construct: Bought protein (R&D Systems); also called Vascular endothelial growth factor D
T3 sequence (looked up): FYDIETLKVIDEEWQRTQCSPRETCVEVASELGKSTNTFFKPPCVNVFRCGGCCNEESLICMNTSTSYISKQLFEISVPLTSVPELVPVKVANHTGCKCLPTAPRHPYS
Description: as §1

| Kd (human Ang2) [nM] | Kd (human VEGF-C) [nM] | Kd (human VEGF-D) [nM] | binding result (human Ang2) | Binder |
| --- | --- | --- | --- | --- |
| 45 | 130 | 170 |  | AV-body 1 (Fc fusion, also called fusion polypeptide AV-body 1; Tie2-ECD/R2-2/R2-3-Fc; not shown: Fc fragment of human IgG1, fused to the C-terminus through the pFUSE-hIgG1-Fc1 vector (InvivoGen)) AMDLILINSLPLVSDAETSLTCIASGWRPHEPITIGRDFEALMNQHQDPLEVTQDVTREWAKKVVWKREKASKINGAYFCEGRVRGEAIRIRTMKMRQQASFLPATLTMTVDKGDNVNISFKKVLIKEEDAVIYKNGSFIHSVPRHEVPDILEVHLPHAQPQDAGVYSARYIGGNLFTSAFTRLIVRRCEAQKWGPECNHLCTACMNNGVCHEDTGECICPPGFMGRTCEKACELHTFGRTCKERCSGQEGCKSYVFCLPDPYGCSCATGWKGLQCNEACHPGFYGPDCKLRCSCNNGEMCDRFQGCLCSPGWQGLQCEREGIEFSPFIASVSDQHGVVYITENKNKTVVIPCLGSISNLNVSLCARYPEKRFVPDGNRISWDSKKGFTIPSYMISYAGMVFCEAKINDESYQSIMYIVVVVGYRIYDVVLSPSHGIELSVGEKLVLNCTARTELNVGIDFNWEYPSSKHQHKKLVNRDLKTQSGSEMKKFLSTLTIDGVTRSDQGLYTCAASSGLMTKKNSTFVRVHE |
|  | 100 | 100 | no binding | V-body (Fc fusion, Expressed in 293-F cells and purified on MabSelect SuRe; also called fusion polypeptide V-body; R2-2/R3-2-Fc; not shown: Fc fragment of human IgG1, fused to the C-terminus through the pFUSE-hIgG1-Fc1 vector (InvivoGen)) ASDYRSPFIASVSDQHGVVYITENKNKTVVIPCLGSISNLNVSLCARYPEKRFVPDGNRISWDSKKGFTIPSYMISYAGMVFCEAKINDESYQSIMYIVVVVGEQPFINKPDTLLVNRKDAMWVPCLVSIPGLNVTLRSQSSVLWPDGQEVVWDDRRGMLVSTPLLHDALYLQCETTWGDQDFLSNPFLVHITG |
| 20 | 34 | 42 |  | AV-body 2 (Fc fusion, also called fusion polypeptide AV-body 2; Tie2-ECD/R2-2/R3-2-Fc; not shown: Fc fragment of human IgG1, fused to the C-terminus through the pFUSE-hIgG1-Fc1 vector (InvivoGen)) AMDLILINSLPLVSDAETSLTCIASGWRPHEPITIGRDFEALMNQHQDPLEVTQDVTREWAKKVVWKREKASKINGAYFCEGRVRGEAIRIRTMKMRQQASFLPATLTMTVDKGDNVNISFKKVLIKEEDAVIYKNGSFIHSVPRHEVPDILEVHLPHAQPQDAGVYSARYIGGNLFTSAFTRLIVRRCEAQKWGPECNHLCTACMNNGVCHEDTGECICPPGFMGRTCEKACELHTFGRTCKERCSGQEGCKSYVFCLPDPYGCSCATGWKGLQCNEACHPGFYGPDCKLRCSCNNGEMCDRFQGCLCSPGWQGLQCEREGIEFMQSKVLLAVALWLCVETRAASDYRSPFIASVSDQHGVVYITENKNKTVVIPCLGSISNLNVSLCARYPEKRFVPDGNRISWDSKKGFTIPSYMISYAGMVFCEAKINDESYQSIMYIVVVVGEQPFINKPDTLLVNRKDAMWVPCLVSIPGLNVTLRSQSSVLWPDGQEVVWDDRRGMLVSTPLLHDALYLQCETTWGDQDFLSNPFLVHITG |
